Our source for the increase in intracellular Ca2+ (FLIPR Calcium 6 dye, mean RFU) of CCR5-transfected HEK293T cells on injection of 100 nM PSC-RANTES; no ATP pre-stimulation, no inhibitor and increase in intracellular Ca2+ (FLIPR Calcium 6 dye, mean RFU) of CCR5-transfected HEK293T cells on injection of 100 nM RANTES; buffer pre-injection, no inhibitor values is publication PMC8159800.

Assay [1] deals with C-C chemokine receptor type 5 (CCR5) with a C-terminal 1D4 epitope tag (human) (UniProt P51681).
UniProt P51681, sequence (P51681 whole entry): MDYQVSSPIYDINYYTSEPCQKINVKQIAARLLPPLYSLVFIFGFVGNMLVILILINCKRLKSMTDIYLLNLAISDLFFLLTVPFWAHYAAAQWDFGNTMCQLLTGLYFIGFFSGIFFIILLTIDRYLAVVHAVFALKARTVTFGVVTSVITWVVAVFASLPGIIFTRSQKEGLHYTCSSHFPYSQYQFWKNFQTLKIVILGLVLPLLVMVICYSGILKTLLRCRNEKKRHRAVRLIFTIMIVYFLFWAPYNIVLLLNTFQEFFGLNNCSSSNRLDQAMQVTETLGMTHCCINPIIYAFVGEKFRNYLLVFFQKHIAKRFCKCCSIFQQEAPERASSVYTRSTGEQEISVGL
Assay [2] has the same target. The source holds these as a separate data set.

PSC-RANTES, sequence (P13501 24-91): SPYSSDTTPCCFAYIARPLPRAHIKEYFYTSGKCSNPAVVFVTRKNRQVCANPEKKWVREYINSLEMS

For “PSC-RANTES (from UniProt P13501 24-91) (ligand)”, the increase in intracellular Ca2+ (FLIPR Calcium 6 dye, mean RFU) of CCR5-transfected HEK293T cells on injection of 100 nM PSC-RANTES; no ATP pre-stimulation, no inhibitor in assay [1] was found to be 9900 RFU.

As to “regulated on activation, normal T cell expressed and secreted (RANTES) (from UniProt P13501 24-91) (ligand)”, the increase in intracellular Ca2+ (FLIPR Calcium 6 dye, mean RFU) of CCR5-transfected HEK293T cells on injection of 100 nM RANTES; buffer pre-injection, no inhibitor in assay [2] is 3830 RFU.
